Legend:
Experiment in all cases: EMSA
SSB = SSB (Escherichia coli, UniProt P0AGE0 2-178)
YoaA;chi (HolC);SSB = YoaA;chi (HolC);SSB (Escherichia coli;Escherichia …, UniProt P76257;P28905;P0AGE0 1-636;1-147;2-178, ||)
[1] = molecular target: YoaA;chi R128A (HolC R128A) (Escherichia coli;Escherichia coli, UniProt P76257;P28905 1-636;1-147, |R128A)
DinG = molecular target: T1, DinG (Escherichia coli, UniProt P27296 1-716)
T1 sequence: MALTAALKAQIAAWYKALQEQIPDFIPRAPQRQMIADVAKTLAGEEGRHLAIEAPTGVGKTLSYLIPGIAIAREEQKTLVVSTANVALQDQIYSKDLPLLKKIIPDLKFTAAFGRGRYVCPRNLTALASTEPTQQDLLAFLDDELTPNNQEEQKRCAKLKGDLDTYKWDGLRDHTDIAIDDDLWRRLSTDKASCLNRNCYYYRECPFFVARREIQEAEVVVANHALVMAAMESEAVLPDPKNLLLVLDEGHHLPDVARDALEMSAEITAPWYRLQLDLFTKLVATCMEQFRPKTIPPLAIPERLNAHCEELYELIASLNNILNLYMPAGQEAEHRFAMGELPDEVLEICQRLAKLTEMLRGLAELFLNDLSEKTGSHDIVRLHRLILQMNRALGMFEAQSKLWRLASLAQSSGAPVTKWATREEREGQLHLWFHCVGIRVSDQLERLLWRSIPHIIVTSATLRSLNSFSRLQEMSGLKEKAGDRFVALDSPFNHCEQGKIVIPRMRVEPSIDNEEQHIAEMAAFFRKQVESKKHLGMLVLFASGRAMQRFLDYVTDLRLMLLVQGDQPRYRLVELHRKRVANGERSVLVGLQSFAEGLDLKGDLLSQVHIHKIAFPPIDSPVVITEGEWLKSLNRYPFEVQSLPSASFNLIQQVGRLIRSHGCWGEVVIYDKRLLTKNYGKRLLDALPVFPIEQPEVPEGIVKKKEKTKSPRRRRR

YoaA;chi (HolC) = YoaA;chi (HolC) (Escherichia coli;Escherichia coli, UniProt P76257;P28905 1-636;1-147, |)
DinG;SSB = DinG;SSB (Escherichia coli;Escherichia coli, UniProt P27296;P0AGE0 1-716;2-178, |)
SSB deltaC1 = SSB deltaC1 (Escherichia coli, UniProt P0AGE0 2-177, del178-178)

Measured: binding result

B1: ssT65 (S21) (ssDNA)
DNA: TTTTTTTTTTTTTTTTTTTTTTTTTTTTTTTTTTTTTTTTTTTTTTTTTTTTTTTTTTTTTTTTT
binds: SSB | YoaA;chi (HolC);SSB | [1] | DinG | YoaA;chi (HolC) | DinG;SSB | SSB deltaC1

— paper PMC12122834
